# Data as given in PMC4561730 (Molecular and Cellular Biology, 2015).
# B1: recombinant glutathione S-transferase (GST)-SAM protein (GST fusion of the mouse Bicc1 SAM domain) (domain or fragment, UniProt Q99MQ1 875-938, looked up)
# chain: FKGSDLPELFSKLGLGKYTDVFQQQEIDLQTFLTLTDQDLKELGITTFGARRKMLLAISELSKN
# Molecular target: the molecule itself
# Experiment: negative-staining electron microscopy
protein,measurement,value
B1,stoichiometry N,~40 units
